Values quoted from earlier work as cited in PMC10217895.
Read-outs that look alike come from different tables or passages of the source. Each block holds one substance with its values, some of them ahead of it.

Legend:
[1] = molecular target: von Willebrand factor (Homo sapiens) (UniProt P04275)
[2] = molecular target: ASGPR (Homo sapiens) (UniProt P07306)
[3] = molecular target: LRP1 (Homo sapiens) (UniProt Q07954)
[4] = molecular target: von Willebrand factor (Homo sapiens) (UniProt P04275); remark: listed apart in the source
[5] = molecular target: LDLR (Homo sapiens) (UniProt P01130)
[6] = molecular target: SIGLEC5 (Homo sapiens) (UniProt O15389)
[7] = molecular target: SCARA5 (Homo sapiens) (UniProt Q6ZMJ2)
Chain of SCARA5 (Homo sapiens) (Q6ZMJ2 whole entry): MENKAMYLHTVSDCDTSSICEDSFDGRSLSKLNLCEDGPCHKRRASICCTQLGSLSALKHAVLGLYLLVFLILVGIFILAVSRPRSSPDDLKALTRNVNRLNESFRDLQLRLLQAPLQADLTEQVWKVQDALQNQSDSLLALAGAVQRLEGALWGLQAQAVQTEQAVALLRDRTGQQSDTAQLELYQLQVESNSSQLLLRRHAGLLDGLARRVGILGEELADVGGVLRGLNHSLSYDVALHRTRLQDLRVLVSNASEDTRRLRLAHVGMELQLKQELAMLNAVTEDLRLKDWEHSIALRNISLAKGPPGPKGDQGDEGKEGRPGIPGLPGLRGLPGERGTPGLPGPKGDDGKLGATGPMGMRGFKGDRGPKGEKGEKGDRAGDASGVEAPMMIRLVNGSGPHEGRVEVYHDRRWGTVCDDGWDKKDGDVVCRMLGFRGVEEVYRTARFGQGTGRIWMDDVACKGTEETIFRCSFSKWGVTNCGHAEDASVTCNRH

Chain of Factor VIII (P00451 760-1332): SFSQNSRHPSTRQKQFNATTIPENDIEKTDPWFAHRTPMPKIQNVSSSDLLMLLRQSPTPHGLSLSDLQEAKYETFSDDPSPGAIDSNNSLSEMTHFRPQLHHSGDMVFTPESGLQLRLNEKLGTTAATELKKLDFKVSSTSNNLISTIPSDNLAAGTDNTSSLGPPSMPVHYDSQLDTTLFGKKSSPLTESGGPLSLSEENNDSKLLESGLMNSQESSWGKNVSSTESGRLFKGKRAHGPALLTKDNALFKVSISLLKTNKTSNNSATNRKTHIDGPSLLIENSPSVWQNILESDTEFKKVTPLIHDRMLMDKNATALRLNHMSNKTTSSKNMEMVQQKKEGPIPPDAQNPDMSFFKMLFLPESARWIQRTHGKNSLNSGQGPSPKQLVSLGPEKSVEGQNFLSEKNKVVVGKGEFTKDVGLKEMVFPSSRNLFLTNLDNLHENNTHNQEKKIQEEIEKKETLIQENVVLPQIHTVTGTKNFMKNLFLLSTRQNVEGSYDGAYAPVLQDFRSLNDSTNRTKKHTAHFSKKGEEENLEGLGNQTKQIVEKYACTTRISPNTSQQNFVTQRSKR
Chain of SIGLEC5 (Homo sapiens) (O15389 17-441): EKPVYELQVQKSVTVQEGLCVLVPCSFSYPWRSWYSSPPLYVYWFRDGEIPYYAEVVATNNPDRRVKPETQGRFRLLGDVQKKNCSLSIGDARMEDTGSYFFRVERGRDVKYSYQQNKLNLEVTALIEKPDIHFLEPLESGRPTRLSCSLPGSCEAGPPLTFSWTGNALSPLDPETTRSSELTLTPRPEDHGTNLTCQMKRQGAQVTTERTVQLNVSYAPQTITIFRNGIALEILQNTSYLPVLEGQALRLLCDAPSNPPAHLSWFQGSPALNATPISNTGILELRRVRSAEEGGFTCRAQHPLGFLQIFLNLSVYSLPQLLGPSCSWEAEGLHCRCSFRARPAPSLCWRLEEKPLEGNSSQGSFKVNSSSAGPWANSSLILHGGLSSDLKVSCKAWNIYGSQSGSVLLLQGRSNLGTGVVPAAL
Chain of ASGPR (Homo sapiens) (P07306 whole entry, chain 1 of 2): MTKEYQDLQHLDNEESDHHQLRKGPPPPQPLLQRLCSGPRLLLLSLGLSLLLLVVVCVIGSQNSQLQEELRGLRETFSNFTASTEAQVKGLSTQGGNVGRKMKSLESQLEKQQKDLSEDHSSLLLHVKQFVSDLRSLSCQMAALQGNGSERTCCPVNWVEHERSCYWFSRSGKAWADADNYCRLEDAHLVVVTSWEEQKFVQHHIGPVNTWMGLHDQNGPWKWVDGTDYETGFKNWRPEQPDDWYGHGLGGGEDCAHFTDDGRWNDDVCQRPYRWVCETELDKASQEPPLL
Chain of ASGPR (Homo sapiens) (P07307 whole entry, chain 2 of 2, further chain): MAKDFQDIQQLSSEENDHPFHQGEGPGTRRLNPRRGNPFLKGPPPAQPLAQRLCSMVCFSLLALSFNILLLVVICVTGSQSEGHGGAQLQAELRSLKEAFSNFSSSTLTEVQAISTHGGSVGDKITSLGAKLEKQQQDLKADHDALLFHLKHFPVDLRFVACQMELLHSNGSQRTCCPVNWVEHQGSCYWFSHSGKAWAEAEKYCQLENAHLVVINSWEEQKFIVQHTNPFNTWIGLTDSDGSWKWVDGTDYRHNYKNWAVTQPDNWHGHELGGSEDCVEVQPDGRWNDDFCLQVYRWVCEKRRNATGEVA
Chain of LDLR (Homo sapiens) (P01130 22-788): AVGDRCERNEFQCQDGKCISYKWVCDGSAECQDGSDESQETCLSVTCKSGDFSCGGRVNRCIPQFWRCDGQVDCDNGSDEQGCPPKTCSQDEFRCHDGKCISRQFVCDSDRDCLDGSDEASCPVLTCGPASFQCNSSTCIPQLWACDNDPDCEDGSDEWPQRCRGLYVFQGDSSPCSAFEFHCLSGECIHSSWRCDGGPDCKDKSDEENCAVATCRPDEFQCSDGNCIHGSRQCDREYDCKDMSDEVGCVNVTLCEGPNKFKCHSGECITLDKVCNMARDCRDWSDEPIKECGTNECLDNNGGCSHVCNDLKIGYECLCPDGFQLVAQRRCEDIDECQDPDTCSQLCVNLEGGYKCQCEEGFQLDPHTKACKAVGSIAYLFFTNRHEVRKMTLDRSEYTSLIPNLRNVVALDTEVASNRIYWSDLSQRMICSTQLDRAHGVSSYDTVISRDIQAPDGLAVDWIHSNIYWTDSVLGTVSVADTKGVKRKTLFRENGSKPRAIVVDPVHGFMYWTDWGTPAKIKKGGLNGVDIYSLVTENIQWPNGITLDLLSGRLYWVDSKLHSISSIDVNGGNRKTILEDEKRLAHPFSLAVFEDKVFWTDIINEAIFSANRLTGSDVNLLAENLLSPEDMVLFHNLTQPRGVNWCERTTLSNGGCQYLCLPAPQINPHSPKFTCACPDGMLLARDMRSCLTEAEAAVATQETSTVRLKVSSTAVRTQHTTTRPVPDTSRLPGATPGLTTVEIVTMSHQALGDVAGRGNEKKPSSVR
Chain of FVIII-KB013bv (P00451 20-759): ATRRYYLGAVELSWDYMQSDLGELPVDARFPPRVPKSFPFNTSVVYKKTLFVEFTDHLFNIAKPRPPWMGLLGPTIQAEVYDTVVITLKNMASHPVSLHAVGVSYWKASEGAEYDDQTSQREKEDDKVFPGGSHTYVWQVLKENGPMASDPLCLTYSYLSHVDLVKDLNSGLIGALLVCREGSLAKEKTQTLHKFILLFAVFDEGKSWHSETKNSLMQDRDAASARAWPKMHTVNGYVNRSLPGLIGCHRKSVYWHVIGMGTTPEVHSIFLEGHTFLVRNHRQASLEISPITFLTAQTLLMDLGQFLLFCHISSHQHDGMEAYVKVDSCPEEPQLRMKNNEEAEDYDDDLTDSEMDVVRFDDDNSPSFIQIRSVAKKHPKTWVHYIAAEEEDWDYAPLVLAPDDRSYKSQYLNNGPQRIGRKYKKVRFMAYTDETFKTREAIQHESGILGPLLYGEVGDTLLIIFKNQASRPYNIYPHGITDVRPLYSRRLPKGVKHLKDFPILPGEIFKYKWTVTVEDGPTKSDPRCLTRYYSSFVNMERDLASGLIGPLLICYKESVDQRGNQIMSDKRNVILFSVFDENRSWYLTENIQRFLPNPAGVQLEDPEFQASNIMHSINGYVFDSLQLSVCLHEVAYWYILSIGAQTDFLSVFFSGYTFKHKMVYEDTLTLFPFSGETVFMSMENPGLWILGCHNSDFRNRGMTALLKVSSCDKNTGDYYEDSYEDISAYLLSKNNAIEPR
Chain of FVIII-KB013bv (P00451 1668-2351): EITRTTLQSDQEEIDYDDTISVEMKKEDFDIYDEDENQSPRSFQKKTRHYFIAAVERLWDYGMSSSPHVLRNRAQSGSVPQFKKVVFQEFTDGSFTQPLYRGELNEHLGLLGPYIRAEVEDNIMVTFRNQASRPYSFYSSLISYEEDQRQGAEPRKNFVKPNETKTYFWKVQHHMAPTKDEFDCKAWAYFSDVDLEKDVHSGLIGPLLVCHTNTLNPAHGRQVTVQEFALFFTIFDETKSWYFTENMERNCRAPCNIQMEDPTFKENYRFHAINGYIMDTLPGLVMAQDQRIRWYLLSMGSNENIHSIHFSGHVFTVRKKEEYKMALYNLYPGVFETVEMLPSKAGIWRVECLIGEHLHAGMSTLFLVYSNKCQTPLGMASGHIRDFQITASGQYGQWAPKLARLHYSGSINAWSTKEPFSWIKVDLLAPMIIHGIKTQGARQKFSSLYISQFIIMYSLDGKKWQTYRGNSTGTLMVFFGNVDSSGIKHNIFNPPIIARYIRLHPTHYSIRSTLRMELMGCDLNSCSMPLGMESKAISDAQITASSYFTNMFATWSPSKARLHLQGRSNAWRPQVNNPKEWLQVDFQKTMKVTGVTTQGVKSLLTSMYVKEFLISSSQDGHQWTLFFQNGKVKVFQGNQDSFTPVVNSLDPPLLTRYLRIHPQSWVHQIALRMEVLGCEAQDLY

Kd [1]: 0.013 nM
Substance: FVIII-KB013bv (from UniProt P00451)

Kd [2]: 2 nM
Kd [3]: 20 nM
Kd [4]: 0.5 nM
Kd [5]: 45 nM
Kd [6]: 8 nM
Substance: Factor VIII (from UniProt P00451)

Kd [7]: 0.5 nM
Substance: von Willebrand factor (from UniProt P04275)
